Data as given in patent publication US20150322149A1 (Hoffmann-La Roche, published 2015).

Assays:
[1] = target: T1, Abeta(1-40), fibrillar, immobilized (UniProt P05067 672-711); assay: ELISA on coated fibrillar Abeta(1-40)
T1 construct: domain: Abeta(1-40); Numbers 1-40 count on the Abeta peptide, not on the APP precursor; also called Abeta fibrils; fibrillar Abeta
Protocol: Functionality of mAb31 was confirmed by ELISA. Briefly, Abeta(1-40) was coated at 7 μg/mL in PBS onto Maxisorp plates for 3 days at 37° C. to produce fibrillar Abeta, then dried for 3 h at RT. The plate was blocked with 1% Crotein C and 0.1% RSA in PBS (blocking buffer) for 1 h at RT, then washed once with wash buffer. mAb31 constructs were added at concentrations up to 100 nM in blocking buffer and incubated at 4° C. overnight. After 4 wash steps, constructs were detected as indicated above.

[2] = target: T2, recombinant mouse transferrin receptor (mTfR), extracellular domain (mouse, UniProt Q62351 89-763); assay: indirect ELISA on coated recombinant mTfR extracellular domain
T2 construct: extracellular domain; Bought protein; also called murine Transferrin receptor 1
T2 sequence (Q62351 89-763): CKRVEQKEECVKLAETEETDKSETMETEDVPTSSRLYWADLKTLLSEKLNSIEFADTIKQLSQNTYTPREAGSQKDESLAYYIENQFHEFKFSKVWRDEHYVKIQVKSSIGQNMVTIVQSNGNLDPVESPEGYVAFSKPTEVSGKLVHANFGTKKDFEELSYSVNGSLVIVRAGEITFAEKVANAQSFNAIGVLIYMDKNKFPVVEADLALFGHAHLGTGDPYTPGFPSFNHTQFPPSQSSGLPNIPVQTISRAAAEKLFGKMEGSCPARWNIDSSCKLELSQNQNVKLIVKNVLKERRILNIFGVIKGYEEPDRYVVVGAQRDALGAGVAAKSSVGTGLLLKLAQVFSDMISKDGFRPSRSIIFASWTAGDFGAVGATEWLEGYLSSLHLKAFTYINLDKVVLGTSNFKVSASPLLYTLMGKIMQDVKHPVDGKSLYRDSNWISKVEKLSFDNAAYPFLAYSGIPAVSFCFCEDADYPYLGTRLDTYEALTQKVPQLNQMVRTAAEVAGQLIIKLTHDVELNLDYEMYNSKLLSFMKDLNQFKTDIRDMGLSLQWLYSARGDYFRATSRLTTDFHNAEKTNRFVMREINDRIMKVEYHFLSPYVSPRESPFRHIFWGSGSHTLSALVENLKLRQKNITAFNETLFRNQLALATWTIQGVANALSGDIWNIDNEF
Protocol: Binding of mAb31-8D3 constructs to mouse transferrin receptor (mTfR) was assessed by indirect ELISA. To this end, recombinant mTfR (extracellular domain; Sino Biological) was coated to Maxisorb microtiter plate (Nunc) at 1 μg/mL in PBS at 4° C. overnight. After blocking in 1% Cro-tein-C/PBS (blocking buffer; Roche) for 1 h at RT and 4 washes with 0.1% Tween-20/PBS (wash buffer), mAb31-8D3 constructs were added to the wells at concentrations between 0.01 and 150 nM in blocking buffer and incubated for 1 h at RT. After 4 wash steps, constructs were detected by addition of anti-human-IgG-HRP (Jackson Immunoresearch) at 1:10,000 dilution in blocking buffer […], followed by 6 washes and incubation in TMB (Sigma). Absorbance was read out at 450 nm after stopping color development with 1 N HCl.

T1 sequence (P05067 672-711 limits assumed): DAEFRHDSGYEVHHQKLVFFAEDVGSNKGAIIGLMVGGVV

binding result [1]: binds
binding result [2]: no binding (tested: 0.01 to 150 nM)
B1: mAb31 (human monoclonal antibody recognizing Abeta; INN Gantenerumab) (antibody, V domains shown)
VH: QVELVESGGGLVQPGGSLRLSCAASGFTFSSYAMSWVRQAPGKGLEWVSAINASGTRTYYADSVKGRFTISRDNSKNTLYLQMNSLRAEDTAVYYCARGKGNTHKPYGYVRYFDVWGQGTLVTVSS
VL: DIVLTQSPATLSLSPGERATLSCRASQSVSSSYLAWYQQKPGQAPRLLIYGASSRATGVPARFSGSGSGTDFTLTISSLEPEDFATYYCLQIYNMPITFGQGTKVEIKR
notes: also called anti-Aβ monoclonal antibody mAb31
